Source: patent publication US5686070A, “Methods for treating bacterial pneumonia” (Genentech, Inc., priority 1995, dated 1997)

Columns and labels:
[1] = biological target: T1, recombinant human IL-8, (ser-IL-8)72 (human, UniProt P10145)
[2] = biological target: T1, recombinant human IL-8, (ser-IL-8)72; test: competitive binding RIP with unlabeled IL-8, Scatchard analysis
Human IL-8 [3] = test: Human IL-8 mediated neutrophil chemotaxis, 96-well chamber, calcein AM-labeled neutrophils; format: cell-based
Procedure: Human neutrophils were isolated, counted and resuspended at 5×10^6 cells/ml in Hank's balanced salt solution (abbreviated HBSS; without calcium and magnesium) with 0.1% bovine serum albumin. The neutrophils were labeled by adding calcein AM (Molecular Probe, Eugene, Oreg.) at a final concentration of 2.0 μM. Following a 30 minute incubation at 37° C., cells were washed twice with HBSS-BSA and resuspended at 5×10^6 cells/ml.
Chemotaxis experiments were carried out in a Neuro Probe (Cabin John, Md.) 96-well chamber, model MBB96. Experimental samples (buffer only control, IL-8 alone or IL-8 +Fabs) were loaded in a Polyfiltronics 96-well View plate (Neuro Probe Inc.) placed in the lower chamber. […]
The relative number of neutrophils migrating through the filter (Neutrophil migration index) was determined by measuring fluorescence intensity of the filter and the fluorescence intensity of the contents of the lower chamber and adding the two values together. Fluorescence intensity was measured with a CytoFluor 2300 fluorescent plate reader (Millipore Corp. Bedford, Mass.) configured to read a Corning 96-well plate using the 485-20 nm excitation filter and a 530-25 emission filter, with the sensitivity set at 3.

IL-8 [4] = test: Radioimmune precipitation test (RIP): capture of soluble 125I-IL-8; format: binding, human
Procedure: The ability of these monoclonal antibodies to capture soluble ^125 I-IL-8 was assessed by a radioimmune precipitation test (RIP). Briefly, tracer ^125 I-IL-8 (4×10^4 cpm) was incubated with various dilutions of the monoclonal anti-IL-8 antibodies in 0.2 ml of PBS containing 0.5% BSA and 0.05% Tween 20 (assay buffer) for 1 hr at room temperature. One hundred microliters of a predetermined concentration of goat anti-mouse Ig antisera (Pel-Freez, Rogers, Ariz.) were added and the mixture was incubated at room temperature for 1 hr. Immune complexes were precipitated by the addition of 0.5 ml of 6% polyethylene glycol (M.W. 8000) kept at 4° C. After centrifugation at 2,000×g for 20 min at 4° C., the supernatant was removed by aspiration and the radioactivity remaining in the pellet was counted in a gamma counter. Percent specific binding was calculated as (precipitated cpm--background cpm)/(total cpm--background cpm).

[5] = Isoelectric focusing (IEF) pattern; format: physicochemical; conditions: IEF polyacrylamide gel pH 3-9
Procedure: The isoelectric focusing (IEF) pattern of each mAb was determined by applying purified antibodies on an IEF polyacrylamide gel (pH 3-9, Pharmacia) using the Fast gel system (Pharmacia, Piscataway, N.J.). The IEF gel was pretreated with pharmalyte containing 1% Triton X100 (Sigma, St. Louis, Mo.) for 10 min before loading the samples. The IEF pattern was visualized by silver staining according to the instructions from the manufacturer. All of the monoclonal antibodies had different IEF patterns, confirming that they originated from different clones.

IL-8 [6] = test: Competitive binding ELISA (epitopes), biotinylated mAb vs unlabeled mAb; parameters: species or system human; conditions: ratio of biotinylated mAb to unlabeled mAb 1:100
Procedure: To assess whether these monoclonal antibodies bound to the same epitopes, a competitive binding ELISA was performed. […] Thus, mAb 4.1.3 and mAb 5.2.3 bind to a different epitope(s) than the epitope recognized by monoclonal antibodies 12.3.9, 4.8 and 5.12.14.

IL-8 [7] = test: Receptor binding assay: 125I-IL-8 bound to human neutrophils in presence of mAbs; conditions: 1:25 molar ratio of IL-8 to mAb
Procedure: To assess the ability of these monoclonal antibodies to neutralize IL-8 activity, the amount of ^125 I-IL-8 bound to human neutrophils in the presence of various amounts of culture supernatants and purified monoclonal antibodies was measured. Neutrophils were prepared by using Mono-Poly Resolving Medium (M-PRM) (Flow Lab. Inc., McLean, Va). Briefly fresh, heparinized human blood was loaded onto M-PRM at a ratio of blood to medium, 3.5:3.0, and centrifuged at 300×g for 30 min at room temperature. Neutrophils enriched at the middle layer were collected and washed once in PBS. Such a preparation routinely contained greater than 95% neutrophils according to the Wright's Giemsa staining. The receptor binding assay was done as follows. 50 μl of ^125 I-IL-8 (5 ng/ml) was incubated with 50 μl of unlabeled IL-8 (100 μg/ml) or monoclonal antibodies in PBS containing 0.1% BSA for 30 min at room temperature. The mixture was then incubated with 100 μl of neutrophils (10^7 cells/ml) for 15 min at 37° C. The ^125 I-IL-8 bound was separated from the unbound material by loading mixtures onto 0.4 ml of PBS containing 20% sucrose and 0.1% BSA and by centrifugation at 300×g for 15 min. The supernatant was removed by aspiration and the radioactivity associated with the pellet was counted in a gamma counter.

IL-8 [8] = test: Neutrophil chemotaxis induced by IL-8, Boyden chamber method; format: cell-based, human; conditions: 1:10 ratio of IL-8 to mAb; IL-8 20 nM
Procedure: The ability of the anti-IL-8 antibodies to block neutrophil chemotaxis induced by IL-8 was tested as follows. Neutrophil chemotaxis induced by IL-8 was determined using a Boyden chamber method (Larsen, et al., Science 243:1464 (1989)). One hundred μl of human neutrophils (10^6 cells/ml) resuspended in RPMI containing 0.1% BSA were placed in the upper chamber and 29 μl of the IL-8 (20 nM) with or without monoclonal antibodies were placed in the lower chamber. Cells were incubated for 1 hr at 37° C. Neutrophils migrated into the lower chamber were stained with Wright's Giemsa stain and counted under the microscope (100×magnification). Approximately 10 different fields per experimental group were examined. Neutralizing monoclonal antibodies 5.12.14 and 4.1.3 blocked almost 70% of the neutrophil chemotactic activity of IL-8 at 1:10 ratio of IL-8 to mAb.

Human IL-8 [9] = test: IL-8 mediated release of elastase by neutrophils (mAb 5.12.14); format: cell-based; conditions: 1:1 ratio of IL-8 to mAb
Procedure: One of the antibodies, mAb 5.12.14, was further studied to determine whether it could block the IL-8 mediated release of elastase by neutrophils. Briefly, human neutrophils were resuspended in Hanks balanced salt solution (Gibco, Grand Island, N.Y.) containing 1.0% BSA, Fraction V (Sigma, St. Louis, Mo.), 2 mg/ml alpha-D-glucose (Sigma), 4.2 mM sodium bicarbonate (Sigma) and 0.01M HEPES, pH 7.1 (JRH Bioscience, Lenexa, Kans.). A stock of cytochalasin B (Sigma) was prepared (5 mg/ml in dimethylsulfoxide (Sigma) and stored at 2°-8° C. Cytochalasin B was added to the neutrophil preparation to produce a final concentration of 5 μg/ml, and incubated for 15 min at 37° C. Human IL-8 was incubated with mAb 5.12.14 (20 μl), or a negative control antibody, in 1 ml polypropylene tubes (DBM Scientific, San Fernando, Calif.) for 30 min at 37° C. The final assay concentrations of IL-8 were 50 and 500 nM. The monoclonal antibodies were diluted to produce the following ratios (IL-8:Mab): 1:50, 1:10, 1:2, 1:1, and 1:0.25. Cytochalasin B-treated neutrophils were added (100 μl/tube) and incubated for 2 hours at 25° C. The tubes were centrifuged (210×g, 2°-8° C.) for 10 min, and supernatants were transferred to 96 well tissue culture plates (30 μl/well). […] Absorbance was measured at 405 nm (SLT 340 ATTC plate reader, SLT Lab Instruments, Austria).

B1: anti-IL-8 monoclonal antibody 5.12.14 (antibody, V domains shown)
VH: EVQLVESGGGLVPPGGSLKLSCAASGFIFSSYGMSWVRQTPGKSLELVATINNNGDSTYYPDSVKGRFTISRDNAKNTLYLQMSSLKSEDTAMFYCARALISSATWFGYWGQGTLVTVSA
VL: DIVMTQSQKFMSTSVGDRVSVTCKASQNVGTNVAWYQQKPGQSPKALIYSSSYRYSGVPDRFTGSGSGTDFTLTISHVQSEDLADYFCQQYNIYPLTFGPGTKLELKR
neutrophil chemotaxis induced by IL-8 (Boyden chamber) [1]: 70% | Kd [2]: 0.3 nM

B2: 6G.4.25 Fab (antibody)
heavy: EIQLQQSGPELMKPGASVKISCKASGYSFSSHYMHWVKQSHGKSLEWIGYIDPSNGETTYNQKFKGKATLTVDTSSSTANVHLSSLTSDDSAVYFCARGDYRYNGDWFFDVWGAGTTVTVSSASTKGPSVFPLAPSSKSTSGGTAALGCLVKDYFPEPVTVSWNSGALTSGVHTFPAVLQSSGLYSLSSVVTVPSSSLGTQTYICNVNHKPSNTKVDKKVEPKSCDKTHT
light: DIVMTQTPLSLPVSLGDQASISCRSSQSLVHGIGNTYLHWYLQKPGQSPKLLIYKVSNRFSGVPDRFSGSGSGTDFTLRISRVEAEDLGLYFCSQSTHVPLTFGAGTKLELKRAVAAPTVFIFPPSSEQLKSGTASVVCLLNNFYPREAKVQWKVDNALQSGNSQESVTEQDSKDSTYSLSSTLTLSKADYEKHKVYACEVTHQGLSSPVTKSFNRGEC
inhibition of human IL-8 mediated neutrophil chemotaxis (Human IL-8 [3]): inhibition

B3: mAb 5.12.14: murine monoclonal antibody against human IL-8, isotype IgG2a, hybridoma ATCC HB 11553 (antibody, V domains shown)
VH: ASGFIFSSYGMSWVRQTPGKSLELVATINNNGDSTYYPDSVKGRFTISRDNAKNTLYLQMSSLKSEDTAMFYCARALISSATWFGYWGQGTLVTVSAAKTTAPSVYP
VL: KASQNVGTNVAWYQQKPGQSPKALIYSSSYRYSGVPDRFTGSGSGTDFTLTISHVQSEDLADYFCQQYNIYPLTFGPGTKLELKRADAAPPTVSIFPPFE
capture of soluble 125I-IL-8 in the RIP (IL-8 [4]): very efficiently | % Specific Binding to IL-8 (IL-8 [4]; RIP, soluble 125I-IL-8): 98% | pI [5]: 6.2-7.4 | inhibition of binding of biotinylated mAb 4.1.3 by unlabeled mAb (IL-8 [6]): not by mAb 5.12.14 | inhibition of binding of biotinylated mAb 5.12.14 by unlabeled mAb (IL-8 [6]): significantly inhibited | inhibition of the binding of IL-8 to human neutrophils (IL-8 [7]): greater than 85% | block of the neutrophil chemotactic activity of IL-8 (IL-8 [8]): ~70% | block of release of elastase from neutrophils (Human IL-8 [9]): effectively block

B4: 5.12.14 Fab (antibody)
heavy: EVQLVESGGGLVPPGGSLKLSCAASGFIFSSYGMSWVRQTPGKSLELVATINNNGDSTYYPDSVKGRFTISRDNAKNTLYLQMSSLKSEDTAMFYCARALISSATWFGYWGQGTLVTVSAASTKGPSVFPLAPSSKSTSGGTAALGCLVKDYFPEPVTVSWNSGALTSGVHTFPAVLQSSGLYSLSSVVTVPSSSLGTQTYICNVNHKPSNTKVDKKVEPKSCDKTHT
light: KASQNVGTNVAWYQQKPGQSPKALIYSSSYRYSGVPDRFTGSGSGTDFTLTISHVQSEDLADYFCQQYNIYPLTFGPGTKLELKRADAAPPTVSIFPPFE
inhibition of human IL-8 mediated neutrophil chemotaxis (Human IL-8 [3]): inhibition
